This is an account of results in US20050282743A1, “Molecular interactions in cells” (Arbor Vita Corporation, priority 2001, published 2005).

The target in assay [1] is T1, GST-PDZK1 PDZ domain 2 (Homo sapiens (Human)), Q5T2W1.
T1 chain: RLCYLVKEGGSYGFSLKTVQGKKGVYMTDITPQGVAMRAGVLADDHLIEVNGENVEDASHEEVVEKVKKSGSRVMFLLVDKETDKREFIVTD
Description: G assay titration, PDZ 5 ug/ml.

In assay [2] the target is T2, GST-PDZK1 PDZ domains 2, 3, 4, Q5T2W1.
T2 chain: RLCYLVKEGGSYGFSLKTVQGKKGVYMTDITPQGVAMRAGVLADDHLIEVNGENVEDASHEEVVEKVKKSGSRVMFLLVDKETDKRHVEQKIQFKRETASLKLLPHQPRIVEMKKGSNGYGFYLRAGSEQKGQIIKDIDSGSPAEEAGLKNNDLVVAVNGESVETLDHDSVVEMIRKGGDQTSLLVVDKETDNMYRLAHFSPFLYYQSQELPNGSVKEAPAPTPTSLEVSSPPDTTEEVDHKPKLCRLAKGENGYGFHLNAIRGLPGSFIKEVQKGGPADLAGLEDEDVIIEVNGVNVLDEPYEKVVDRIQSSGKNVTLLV
Briefly: G' assay. Further: key of the grades not given here.

The target of assay [3] is T3, GST-KIAA0561 PDZ domain 1 (Homo sapiens (Human)), O60307.
T3 chain: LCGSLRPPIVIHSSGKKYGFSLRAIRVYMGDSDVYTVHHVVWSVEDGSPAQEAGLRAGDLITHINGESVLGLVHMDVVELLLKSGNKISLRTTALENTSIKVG
Briefly: G' assay. Further: key of the grades not given here.

The target in assay [4] is T4, GST-KIAA0807(S) PDZ domain 1 (Homo sapiens (Human)), Q6P0Q8.
T4 chain: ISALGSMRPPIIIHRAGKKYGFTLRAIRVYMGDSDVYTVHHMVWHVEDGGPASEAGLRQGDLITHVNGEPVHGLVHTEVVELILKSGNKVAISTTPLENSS
Description: G' assay. Further: key of the grades not given here.

For assay [5], the target named is T5, GST-EZRIN Binding Protein 50 PDZ domain 2 (Homo sapiens (Human)), O14745.
T5 chain: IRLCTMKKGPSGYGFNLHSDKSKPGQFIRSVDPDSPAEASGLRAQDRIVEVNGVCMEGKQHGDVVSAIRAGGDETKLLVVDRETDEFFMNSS
Description: G' assay. Further: key of the grades not given here.

Assay [6] addresses T6, GST-EZRIN Binding Protein 50 PDZ domain 1 (Homo sapiens (Human)), O14745.
T6 chain: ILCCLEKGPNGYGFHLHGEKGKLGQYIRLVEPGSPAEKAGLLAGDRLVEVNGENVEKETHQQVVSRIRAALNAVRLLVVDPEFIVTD
Briefly: G' assay. Further: key of the grades not given here.

The target of assay [7] is T7, GST-Shank 3 PDZ domain 1 (human (hypothetical, computer cloned)), Q9BYB0.
T7 chain: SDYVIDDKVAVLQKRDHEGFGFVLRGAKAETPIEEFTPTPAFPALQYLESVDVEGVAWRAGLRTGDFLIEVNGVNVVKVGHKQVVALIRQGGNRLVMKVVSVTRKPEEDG
Briefly: G' assay. Further: key of the grades not given here.

Assay [8] deals with T1, GST-PDZK1 PDZ domain 2 (Homo sapiens …). Description: G' assay.
Assay [9] has as its target T8, GST-Shank 1 PDZ domain 1 (Homo sapiens (Human)), Q9UPX8.
T8 chain: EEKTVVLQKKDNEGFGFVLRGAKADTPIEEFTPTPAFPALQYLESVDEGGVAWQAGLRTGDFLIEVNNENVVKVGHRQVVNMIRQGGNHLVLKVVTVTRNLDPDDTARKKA
Description: G' assay.

Assay [10] has as its target GST-KIAA807 [GST: P08515]. Briefly: G' assay.
The target in assay [11] is T4, GST-KIAA0807(S) PDZ domain 1 (Homo …). Briefly: G assay titration, PDZ 0.3 ug/ml.

GST-KIAA807 [GST: P08515], sequence (P08515 whole entry, the tested form may be a part): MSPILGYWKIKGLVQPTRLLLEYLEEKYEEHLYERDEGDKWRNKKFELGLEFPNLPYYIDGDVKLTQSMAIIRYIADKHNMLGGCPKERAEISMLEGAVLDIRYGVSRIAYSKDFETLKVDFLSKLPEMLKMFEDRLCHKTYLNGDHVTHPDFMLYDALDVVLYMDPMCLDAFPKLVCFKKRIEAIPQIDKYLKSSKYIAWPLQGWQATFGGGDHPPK

With PSWRRSSLSESENATSLTTF (modifications not checked) [BLR-1], the Kd in assay [1] amounted to 2 µM; in assay [11], 1 µM. Further, the Classification in assay [2] was 1 A450 class; in assay [3], 1 A450 class; in assay [4] it was 2 A450 class; in assay [5], 3 A450 class; in assay [6], 3 A450 class; in assay [7], 3 A450 class. The Classification is 1 A450 class in [8], 3 A450 class in assay [9] and 2 A450 class in [10].
